# Reference: patent US20180074053A1 (priority 2016, published 2018)
# Non-standard residues stand in square brackets, D forms with d. No end group written: not given here.
# T1: NPBW1 (UniProt P48145 1-328)
# T1 sequence (looked up): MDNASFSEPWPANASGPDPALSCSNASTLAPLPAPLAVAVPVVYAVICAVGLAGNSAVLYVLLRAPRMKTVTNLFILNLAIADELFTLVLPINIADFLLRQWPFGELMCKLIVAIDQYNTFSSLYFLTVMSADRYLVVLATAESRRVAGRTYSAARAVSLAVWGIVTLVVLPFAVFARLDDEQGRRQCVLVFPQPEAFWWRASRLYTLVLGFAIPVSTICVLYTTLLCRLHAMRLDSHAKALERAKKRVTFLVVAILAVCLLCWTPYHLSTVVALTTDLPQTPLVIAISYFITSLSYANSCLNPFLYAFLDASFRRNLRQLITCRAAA
# Columns and labels:
# C57BL/6J mice = assay: Oral glucose tolerance test (OGTT); type: in vivo, mouse
# Experimental: (§1) C57BL/6J mice were received from Jackson Laboratories at 4 weeks old and aged to 7 weeks and then grouped by body weight into 4 groups of 10. The mice were fasted overnight (12 hours) prior to the assay. Body weights and blood glucose (FreeStyle Lite glucometer) levels were determined. […] At 30, 60, 90, and 120 minutes glucose levels were measured using whole blood collected from the tip of the tail via needle puncture. Upon the final 120 min measurement, food was returned to the mice.
# Oral glucose tolerance tests (OGTTs) were performed as described in Example 1.
# as §1, with “puncture.” for “puncture. Upon the final 120 min measurement, food was returned to the mice.”
# as §1, with “puncture.” for “puncture. Upon the final 120 min measurement, food was returned to the mice.”
# MRGD = MRGD (Homo sapiens, UniProt Q8TDS7); assay: Calcium mobilization in MRGD over-expressing cells; type: cell-based; set-up: host or cells: ChemiScreen over-expressing cell line, given as 'HEK 293T cells (Chem-1, EMD Millipore)'; conditions: at 5 mM, highest dose used; Example 4
# Experimental: Cells were grown in DMEM medium containing 10% FBS, 1× non-essential amino acids (Gibco #111450-040), 20 mM HEPES and 250 μg/mL Geneticin® (Gibco #10131-035). Cells were harvested with 0.25% Trypsin/EDTA (Gibco #25200-056), pelleted at 1,200×g for 6 minutes and resuspended in DMEM media described above minus Geneticin®. The cells were seeded at 4×10^4 cells/well/100 μL of a clear bottom/black 96-well plate and grown overnight. The calcium mobilization assays was performed using Screen Quest Fluo-8 Medium Removal Calcium Assay Kit (AAT Bioquest #36308) according to the manufacturer's protocol. Briefly, cells were washed with 100 μL volume of Hank's balanced salt solution, 20 mM HEPES, pH 7.4 and loaded with a buffer containing HBSS, 20 mM HEPES, 1× Pluronic F127 and the Fluo-8 NW dye. The cells were incubated for 30 minutes at 37° C. followed by a 30 minute room temperature incubation. Drug stocks were prepared at 100× concentration and diluted 1:33 in HBSS, 20 mM HEPES, pH 7.4 in a 96-well plate (Corning #3641). Calcium mobilization was measured using the FlexStation 3 (Molecular Devices) at excitation wavelength of 490 nm and emission wavelength of 525 nm. Fluorescence was measured for 180 seconds at 5 second intervals with the addition of compound at a 1:3 dilution after 15 seconds. Peak fluorescence values were calculated using SoftMax Pro 5 (Molecular Devices). The fluorescence values obtained from control wells without cells are subtracted from wells containing treated cells to correct for background. The ratio of fluorescence values of treated cells to vehicle control wells was used to calculate fold activity of the compounds.
# MRGD cells (EMD Millipore, MA) were treated with either β-alanine, or alamandine at various concentrations (FIG. 10) and calcium mobilization was monitored using a FlexStation 3 Microplate Reader (Molecular Devices) as described in Example 4.
# MrgprD^−/− (KO) mice = conditions: 0.5 mg/g with 2 mg/g glucose oral; P<0.05 KO vs. WT
# Experimental: (§2) The mice were fasted overnight and their fasting glucose levels were measured. […] Blood glucose levels were measured at 30, 60, 90 and 120 minutes after glucose loading.
# as §2
# STC-1 cells = assay: GLP-1 secretion from STC-1 cells (ELISA); type: cell-based, mouse; conditions: 2 hours, DMEM without serum and glucose; FIG. 3
# Experimental: The pathways and sites of action of H89 and U73122 are graphically represented in FIG. 2.
# Supernatants were collected for GLP-1 measurement. and the GLP-1 concentration was measured using a total GLP-1 (7-36 and 9-36) ELISA kit according to manufacturer's instruction (Alpco. Salem, N.H.).
# NK1 = NK1 (UniProt P25103 1-407); assay: cell-based or functional assay
# NMUR2 = NMUR2 (UniProt Q9GZQ4 1-415, limits assumed); assay: cell-based or functional assay
# NPBW1 = target: T1, NPBW1; assay: cell-based or functional assay
# [1] = target: GPCR 109a, the nicotinic acid receptor (human, UniProt Q8TDS4 1-363); assay: cell-based or functional assay
# MCHR1 = MCHR1 (UniProt Q99705 1-353, limits assumed); assay: cell-based or functional assay
# [2] = target: MAS-related G-protein-coupled receptor member D (MRGD) (human, UniProt Q8TDS7 1-321); assay: cell-based or functional assay
# MAS-related G-protein-coupled receptor member D (MRGD), sequence (Q8TDS7 whole entry): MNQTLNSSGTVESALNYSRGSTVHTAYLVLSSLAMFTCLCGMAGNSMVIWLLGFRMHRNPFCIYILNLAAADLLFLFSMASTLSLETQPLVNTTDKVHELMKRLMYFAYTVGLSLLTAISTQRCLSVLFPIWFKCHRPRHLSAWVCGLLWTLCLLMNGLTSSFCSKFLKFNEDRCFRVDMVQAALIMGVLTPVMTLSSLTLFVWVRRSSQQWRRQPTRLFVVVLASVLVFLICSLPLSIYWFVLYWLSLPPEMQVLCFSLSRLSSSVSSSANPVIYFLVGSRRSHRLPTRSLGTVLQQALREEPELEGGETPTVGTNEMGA
# NMUR2, sequence (Q9GZQ4 whole entry): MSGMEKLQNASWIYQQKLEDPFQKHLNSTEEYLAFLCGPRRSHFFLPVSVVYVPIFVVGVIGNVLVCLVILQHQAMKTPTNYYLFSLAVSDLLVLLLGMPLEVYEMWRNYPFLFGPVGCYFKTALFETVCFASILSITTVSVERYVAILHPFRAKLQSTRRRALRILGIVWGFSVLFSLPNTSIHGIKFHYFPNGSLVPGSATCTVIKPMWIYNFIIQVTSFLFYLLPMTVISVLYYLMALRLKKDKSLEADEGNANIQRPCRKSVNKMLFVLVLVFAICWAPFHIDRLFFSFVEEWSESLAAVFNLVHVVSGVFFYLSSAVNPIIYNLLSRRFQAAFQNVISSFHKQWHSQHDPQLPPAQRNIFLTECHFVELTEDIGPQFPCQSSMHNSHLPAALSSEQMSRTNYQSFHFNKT
# GPCR 109a, the nicotinic acid receptor, sequence (Q8TDS4 whole entry): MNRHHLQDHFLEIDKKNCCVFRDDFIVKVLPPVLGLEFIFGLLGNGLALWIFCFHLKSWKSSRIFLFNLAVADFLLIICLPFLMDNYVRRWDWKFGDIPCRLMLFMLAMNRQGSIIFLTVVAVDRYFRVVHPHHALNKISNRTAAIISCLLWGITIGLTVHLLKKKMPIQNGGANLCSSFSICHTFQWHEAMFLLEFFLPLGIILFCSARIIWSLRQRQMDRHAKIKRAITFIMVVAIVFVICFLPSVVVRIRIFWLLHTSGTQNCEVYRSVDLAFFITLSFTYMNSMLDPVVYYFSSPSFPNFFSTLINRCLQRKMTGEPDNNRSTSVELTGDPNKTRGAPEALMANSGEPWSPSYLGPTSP
# NK1, sequence (P25103 whole entry): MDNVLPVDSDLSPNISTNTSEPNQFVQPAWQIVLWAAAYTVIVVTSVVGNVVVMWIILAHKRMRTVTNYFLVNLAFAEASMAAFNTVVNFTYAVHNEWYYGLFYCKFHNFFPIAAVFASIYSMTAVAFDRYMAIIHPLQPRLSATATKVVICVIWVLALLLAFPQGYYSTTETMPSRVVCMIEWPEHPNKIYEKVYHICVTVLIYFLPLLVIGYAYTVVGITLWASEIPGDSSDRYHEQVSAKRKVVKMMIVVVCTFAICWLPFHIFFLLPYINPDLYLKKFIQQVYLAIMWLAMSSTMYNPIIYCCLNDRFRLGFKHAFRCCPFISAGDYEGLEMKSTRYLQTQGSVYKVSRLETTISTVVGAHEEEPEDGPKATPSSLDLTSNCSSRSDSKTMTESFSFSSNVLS
# MCHR1, sequence (Q99705 whole entry): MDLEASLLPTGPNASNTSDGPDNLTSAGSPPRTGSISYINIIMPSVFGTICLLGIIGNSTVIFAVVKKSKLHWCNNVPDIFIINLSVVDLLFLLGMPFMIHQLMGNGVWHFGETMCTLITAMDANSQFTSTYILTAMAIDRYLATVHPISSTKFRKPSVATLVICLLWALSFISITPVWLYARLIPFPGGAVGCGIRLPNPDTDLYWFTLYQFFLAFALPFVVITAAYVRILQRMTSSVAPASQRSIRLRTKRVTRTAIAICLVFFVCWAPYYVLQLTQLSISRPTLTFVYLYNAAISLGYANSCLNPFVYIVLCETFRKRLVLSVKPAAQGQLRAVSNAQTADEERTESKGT
# MRGD, sequence (Q8TDS7 whole entry): as the sequence (Q8TDS7 whole entry) above
molecule,measurement,setting,value
CC(C)C[C@@H](NC(=O)CNC(=O)CN)C(=O)O,significance of blood glucose lowering in OGTT,"C57BL/6J mice; Example 5, FIG. 9, 0.1 mg/g",significant
same,significance of blood glucose lowering in OGTT,"C57BL/6J mice; Example 5, FIG. 9, 0.5 mg/g",significant
same,significance of blood glucose lowering in OGTT,"C57BL/6J mice; Example 5, FIG. 9, 1 mg/g",significant
same,blood glucose in response to a glucose load (OGTT),"C57BL/6J mice; Example 5, FIG. 9, 1, 0.5 and 0.1 mg/g body weight","lower blood glucose in response to a glucose load, in a dose-dependent manner"
same,overall effect on blood glucose compared with metformin,C57BL/6J mice; Example 9,not found to be significantly different
same,overall effect on blood glucose in OGTT vs vehicle,"C57BL/6J mice; Example 9, FIG. 14, DT-110 1 mg/g, alamandine 10 mg/g, metformin 0.2 mg/g",significant
same,rise in blood glucose at 30 min in OGTT,"C57BL/6J mice; Example 9, DT-110 1 mg/g, P<0.001 vs. all other treatments",dramatically blocked the rise in blood glucose
same,effect on blood glucose compared with alamandine,"C57BL/6J mice; Example 9, P<0.001",significantly different from alamandine
same,calcium mobilization activity,MRGD,active
same,reduction of blood glucose levels in KO mice compared with WT mice (OGTT),MrgprD^−/− (KO) mice,significantly impaired
same,release of GLP-1 by STC-1 cells,STC-1 cells,stimulated significant release of GLP-1
"Gly-Gly-[dL] [DT-110, tripeptide glycine-glycine-D-leucine (GGdL)]","percent activation (calcium flux, GPCRProfiler), DT-110 @ 1.25 mM, Avg.",NK1,-0.9%
same,"percent activation (calcium flux, GPCRProfiler), DT-110 @ 1.25 mM, n1",NK1,-1%
same,"percent activation (calcium flux, GPCRProfiler), DT-110 @ 1.25 mM, n2",NK1,-0.9%
same,"percent activation (calcium flux, GPCRProfiler), DT-110 @ 12.5 mM, Avg.",NK1,-1.1%
same,"percent activation (calcium flux, GPCRProfiler), DT-110 @ 12.5 mM, n1",NK1,-1%
same,"percent activation (calcium flux, GPCRProfiler), DT-110 @ 12.5 mM, n2",NK1,-1.1%
same,"percent activation (calcium flux, GPCRProfiler), DT-110 @ 1.25 mM, Avg.",NMUR2,2.4%
same,"percent activation (calcium flux, GPCRProfiler), DT-110 @ 1.25 mM, n1",NMUR2,0.9%
same,"percent activation (calcium flux, GPCRProfiler), DT-110 @ 1.25 mM, n2",NMUR2,3.9%
same,"percent activation (calcium flux, GPCRProfiler), DT-110 @ 12.5 mM, Avg.",NMUR2,-0.9%
same,"percent activation (calcium flux, GPCRProfiler), DT-110 @ 12.5 mM, n1",NMUR2,0.4%
same,"percent activation (calcium flux, GPCRProfiler), DT-110 @ 12.5 mM, n2",NMUR2,-2.2%
same,"percent activation (calcium flux, GPCRProfiler), DT-110 @ 1.25 mM, Avg.",NPBW1,0.2%
same,"percent activation (calcium flux, GPCRProfiler), DT-110 @ 1.25 mM, n1",NPBW1,1.6%
same,"percent activation (calcium flux, GPCRProfiler), DT-110 @ 1.25 mM, n2",NPBW1,-1.1%
same,"percent activation (calcium flux, GPCRProfiler), DT-110 @ 12.5 mM, Avg.",NPBW1,-0.9%
same,"percent activation (calcium flux, GPCRProfiler), DT-110 @ 12.5 mM, n1",NPBW1,-0.8%
same,"percent activation (calcium flux, GPCRProfiler), DT-110 @ 12.5 mM, n2",NPBW1,-0.9%
same,"percent activation (calcium flux, GPCRProfiler), DT-110 @ 1.25 mM, Avg.",[1],-8.1%
same,"percent activation (calcium flux, GPCRProfiler), DT-110 @ 1.25 mM, n1",[1],-8.1%
same,"percent activation (calcium flux, GPCRProfiler), DT-110 @ 1.25 mM, n2",[1],-8%
same,"percent activation (calcium flux, GPCRProfiler), DT-110 @ 12.5 mM, Avg.",[1],54.3%
same,"percent activation (calcium flux, GPCRProfiler), DT-110 @ 12.5 mM, n1",[1],52.9%
same,"percent activation (calcium flux, GPCRProfiler), DT-110 @ 12.5 mM, n2",[1],55.7%
same,"percent activation (calcium flux, GPCRProfiler), DT-110 @ 1.25 mM, Avg.",MCHR1,0.4%
same,"percent activation (calcium flux, GPCRProfiler), DT-110 @ 1.25 mM, n1",MCHR1,0.2%
same,"percent activation (calcium flux, GPCRProfiler), DT-110 @ 1.25 mM, n2",MCHR1,0.7%
same,"percent activation (calcium flux, GPCRProfiler), DT-110 @ 12.5 mM, Avg.",MCHR1,-0.1%
same,"percent activation (calcium flux, GPCRProfiler), DT-110 @ 12.5 mM, n1",MCHR1,-0.5%
same,"percent activation (calcium flux, GPCRProfiler), DT-110 @ 12.5 mM, n2",MCHR1,0.3%
same,"EC50, calcium mobilization in MRGD cells (FIG. 12)",[2],~360 µM
same,"EC50, calcium mobilization in MRGD over-expressing cells (FIG. 5)",[2],76 µM
same,"EC50, calcium mobilization in the MRGD cell line (FIG. 8)",[2],161 µM
